Substitutions are numbered along the chain they refer to. Each block holds one binder with its values, some of them ahead of it.
Experiments:
[1] = molecular target: T1, FcγRIIa R type extracellular domain with C-terminal His tag (human, UniProt P12318 34-217); experiment: SPR; KD of IL6R-B3/IL6R-L divided by KD of variant
T1 construct: extracellular domain; also called FcgRIIaR; not shown: His tag at the C terminus
T1 sequence (looked up): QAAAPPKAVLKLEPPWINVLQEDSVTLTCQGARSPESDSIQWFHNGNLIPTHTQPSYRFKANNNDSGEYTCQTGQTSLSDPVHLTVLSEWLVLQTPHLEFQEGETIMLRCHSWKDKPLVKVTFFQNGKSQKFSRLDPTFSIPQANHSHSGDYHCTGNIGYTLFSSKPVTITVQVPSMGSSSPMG

[2] = molecular target: T2, FcγRIIb extracellular domain with C-terminal His tag (human, UniProt P31994 43-217); experiment: SPR; KD of IL6R-B3/IL6R-L divided by KD of variant
T2 construct: extracellular domain; also called FcgRIIb; not shown: His tag at the C terminus
T2 sequence (looked up): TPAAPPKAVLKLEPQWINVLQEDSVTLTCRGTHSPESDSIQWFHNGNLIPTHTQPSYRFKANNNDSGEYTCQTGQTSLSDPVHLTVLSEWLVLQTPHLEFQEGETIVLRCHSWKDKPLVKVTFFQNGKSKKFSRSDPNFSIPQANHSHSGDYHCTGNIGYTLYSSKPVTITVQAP

[3] = molecular target: T1, FcγRIIa R type extracellular domain …; experiment: SPR, antibody captured, FcgR analyte
[4] = molecular target: T2, FcγRIIb extracellular domain with …; experiment: SPR, antibody captured, FcgR analyte
[5] = molecular target: T3, FcγRIa extracellular domain with C-terminal His tag (human, UniProt P12314 16-292); experiment: SPR, antibody captured, FcgR analyte
T3 construct: also called FcgRIa; CD64; not shown: His tag at the C terminus
T3 sequence (P12314 16-292): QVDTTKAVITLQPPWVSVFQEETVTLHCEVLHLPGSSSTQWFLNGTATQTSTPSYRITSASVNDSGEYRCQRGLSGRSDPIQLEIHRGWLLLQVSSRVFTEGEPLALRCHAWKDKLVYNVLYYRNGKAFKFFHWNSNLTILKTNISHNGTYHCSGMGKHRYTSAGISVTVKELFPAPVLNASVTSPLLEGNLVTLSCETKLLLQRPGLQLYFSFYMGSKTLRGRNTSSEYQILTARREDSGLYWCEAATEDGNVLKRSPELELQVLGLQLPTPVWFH

[6] = molecular target: T4, FcγRIIa H type extracellular domain with C-terminal His tag (human, UniProt P12318 34-217); experiment: SPR, antibody captured, FcgR analyte
T4 construct: extracellular domain; also called FcgRIIaH; not shown: His tag at the C terminus
T4 sequence (looked up): T1 sequence (looked up) with R134H

B1: IL6R-BP488/IL6R-L (antibody, human IgG1, kappa, name in EU numbering)
heavy: QVQLQESGPGLVKPSETLSLTCAVSGHSISHDHAWSWVRQPPGEGLEWIGFISYSGITNYNPSLQGRVTISRDNSKNTLYLQMNSLRAEDTAVYYCARSLARTTAMDYWGEGTLVTVSSASTKGPSVFPLAPSSKSTSGGTAALGCLVKDYFPEPVTVSWNSGALTSGVHTFPAVLQSSGLYSLSSVVTVPSSSLGTQTYICNVNHKPSNTKVDKKVEPKSCDKTHTCPPCPAPDLLGDDSVFLFPPKPKDTLMISRTPEVTCVVIDVAEEDGEVKFNWYVDGVEVHNAKTKPREEQDNSTYRVVSVLTVLHQDWLNGKEYKCKVSNKALPRPIEKTISKAKGQPREPQVYTLPPSRDELTKNQVSLTCLVKGFYPSDIAVEWESNGQPENNYKTTPPVLDSDGSFFLYSKLTVDKSRWQQGNVFSCSVMHEALHNHYTQESLSLSP
light: not shown
notes: human IgG1
Relative FcgRIIaR-binding Activity [1]: 14.6
Relative FcgRIIb-binding Activity [2]: 1670
Kd [3]: 74 nM
Kd [4]: 1.9 nM
Kd [5]: 2.2 nM
Kd [6]: 1600 nM

B3: IL6R-BP487/IL6R-L (antibody, human IgG1, kappa, name in EU numbering)
heavy: B1 heavy with D298Y, P398M
light: not shown
notes: human IgG1
Relative FcgRIIaR-binding Activity [1]: 27.8
Relative FcgRIIb-binding Activity [2]: 2690
Kd [3]: 39 nM
Kd [4]: 1.2 nM
Kd [5]: 1.2 nM
Kd [6]: 840 nM

B4: IL6R-BP491/IL6R-L (antibody, human IgG1, kappa, name in EU numbering)
heavy: B1 heavy with D235E
light: not shown
notes: human IgG1
Relative FcgRIIaR-binding Activity [1]: 9.2
Relative FcgRIIb-binding Activity [2]: 1020
Kd [3]: 120 nM
Kd [4]: 3 nM
Kd [5]: 5.3 nM
Kd [6]: 2200 nM

B5: IL6R-BP498/IL6R-L (antibody, human IgG1, kappa, name in EU numbering)
heavy: B1 heavy with D298Y, P398L
light: not shown
notes: human IgG1
Relative FcgRIIaR-binding Activity [1]: 21.3
Relative FcgRIIb-binding Activity [2]: 1870
Kd [3]: 51 nM
Kd [4]: 1.7 nM
Kd [5]: 1.3 nM
Kd [6]: 930 nM

B6: IL6R-BP499/IL6R-L (antibody, human IgG1, kappa, name in EU numbering)
heavy: B1 heavy with P398L
light: not shown
notes: human IgG1
Relative FcgRIIaR-binding Activity [1]: 21.9
Relative FcgRIIb-binding Activity [2]: 2120
Kd [3]: 49 nM
Kd [4]: 1.5 nM
Kd [5]: 1.2 nM
Kd [6]: 1000 nM

B8: IL6R-BP502/IL6R-L (antibody, human IgG1, kappa, name in EU numbering)
heavy: B1 heavy with A329G
light: not shown
notes: human IgG1
Relative FcgRIIaR-binding Activity [1]: 9.9
Relative FcgRIIb-binding Activity [2]: 837
Kd [3]: 110 nM
Kd [4]: 3.7 nM
Kd [5]: 2.1 nM
Kd [6]: 1300 nM

More lines, now with the values ahead:

Relative FcgRIIaR-binding Activity [1]: 9
Relative FcgRIIb-binding Activity [2]: 754
Kd [3]: 120 nM
Kd [4]: 4.1 nM
Kd [5]: 7.7 nM
Kd [6]: 2600 nM
B2: IL6R-BP533/IL6R-L (antibody, human IgG1, kappa, name in EU numbering)
heavy: B1 heavy with A269G, P398L
light: not shown
notes: human IgG1

Kd [5]: 8 nM
Kd [6]: 2300 nM
B7: IL6R-BP554/IL6R-L (antibody, human IgG1, kappa, name in EU numbering)
heavy: B1 heavy with D235E, E274D, D298Y
light: not shown
notes: human IgG1

Kd [4]: 3.8 nM
Kd [5]: 6 nM
Kd [6]: 4000 nM
B9: IL6R-BP510/IL6R-L (antibody, human IgG1, kappa, name in EU numbering)
heavy: B1 heavy with D235E, E274P, D298Y
light: not shown
notes: human IgG1

Relative FcgRIIaR-binding Activity [1]: 13.7
Relative FcgRIIb-binding Activity [2]: 1040
Kd [3]: 79 nM
Kd [4]: 3 nM
Kd [5]: 8.9 nM
Kd [6]: 1300 nM
B10: IL6R-BP536/IL6R-L (antibody, human IgG1, kappa, name in EU numbering)
heavy: B1 heavy with A269S, A329G, P398M
light: not shown
notes: human IgG1

Reference: US20220411483A1 (Chugai, published 2022)
